In US20230167198A1 (University of California, published 2023):

What was measured:
[1] = biological target: T1, human plasminogen (R&D, Minneapolis, Minn.) (human, UniProt P00747 20-810); assay: ELISA of hybridoma subclones on coated antigen
T1 construct: Bought reagent
Method: (§1) (A) Mouse plasma titers of Lp(a)-specific antibodies: Following the first boost target-specific antibody titers were determined by ELISA against immobilized antigen by screening serial dilutions of the serum. The graph represents the mean of technical triplicates measurements at 1:400 plasma dilution. (B) Hybridoma screening: 576 hybridoma colonies were collected and expanded. Supernatants were screened by ELISA against the target antigen Lp(a) and counter-screened against antigen K(IV₂)₃. […] (C) Limiting dilution: To ensure monoclonality, 10 positive colonies were subjected to 2 cycles of limiting dilutions, using semi-solid gel without hypoxanthine-aminopterin-thymidine medium. Collected subclones were tested by ELISA. Colony #1 found to specifically binds Lp(a), but not to plasminogen and KIV₂. […] Colony 1 was tested 5 times and designated LPA-KIV₉. (D) Purified LPA-KIV₉ binding to Lp(a) (5 ug/ml) was tested by ELISA. […] Mean±SD.
(§2) ELISA with direct antigen plating to assess binding of hybridoma generated antibodies. […] Bound IgG antibodies were detected using an anti-mouse IgG-alkaline phosphatase (ALP) conjugate (Sigma-Aldrich, St. Louis, Mo.), Lumi-Phos 530 substrate (Lumigen, Southfield, Mich.) and a luminescence plate reader (BioTek, Vermont).

[2] = biological target: T2, K(IV2)3 recombinant apolipoprotein(a) construct (3 copies of KIV2) (UniProt P08519 131-472, limits assumed); assay: ELISA of hybridoma subclones on coated antigen
T2 construct: domain: KIV2, 3 copies; also called apolipoprotein(a) KIV2
T2 sequence (looked up): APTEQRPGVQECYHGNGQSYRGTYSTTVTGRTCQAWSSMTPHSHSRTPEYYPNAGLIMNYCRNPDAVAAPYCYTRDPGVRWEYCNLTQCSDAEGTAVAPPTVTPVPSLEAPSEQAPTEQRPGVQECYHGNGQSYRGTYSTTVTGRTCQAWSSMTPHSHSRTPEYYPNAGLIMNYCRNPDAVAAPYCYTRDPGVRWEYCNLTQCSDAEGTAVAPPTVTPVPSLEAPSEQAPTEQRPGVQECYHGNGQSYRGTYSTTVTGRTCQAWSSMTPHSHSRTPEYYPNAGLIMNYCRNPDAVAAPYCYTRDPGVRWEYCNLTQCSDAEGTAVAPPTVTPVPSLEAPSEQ
Method: as §1, §2

[3] = biological target: T3, KIV10-P recombinant apolipoprotein(a) construct (UniProt P08519 1605-2040, limits assumed); assay: dot-blot, pattern duplicated by western blot
T3 construct: domain: KIV10 to the protease domain
T3 sequence (P08519 1605-2040 limits assumed): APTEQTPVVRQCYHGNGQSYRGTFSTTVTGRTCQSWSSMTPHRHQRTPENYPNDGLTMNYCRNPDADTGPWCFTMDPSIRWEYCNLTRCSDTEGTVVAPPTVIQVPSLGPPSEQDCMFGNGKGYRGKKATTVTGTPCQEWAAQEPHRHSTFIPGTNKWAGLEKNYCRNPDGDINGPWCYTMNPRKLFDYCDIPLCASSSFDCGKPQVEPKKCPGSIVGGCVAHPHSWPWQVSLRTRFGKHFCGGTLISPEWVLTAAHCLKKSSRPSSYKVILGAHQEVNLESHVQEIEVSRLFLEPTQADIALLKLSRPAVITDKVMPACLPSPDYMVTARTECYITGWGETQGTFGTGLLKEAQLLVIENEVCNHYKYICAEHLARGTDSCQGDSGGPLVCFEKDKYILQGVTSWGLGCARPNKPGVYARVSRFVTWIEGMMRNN
Method: (§3) Lp(a) and array of recombinant apo(a) constructs were used to test LPA-KIV₉ binding by (A) Dot-blot (25 ng protein/dot) and (B) western blot (WB) under reducing conditions (250 ng protein/well).
(§4) Imunoblot analyses. An array of apo(a) constructs was subjected to gel electrophoresis and immunoblot analysis with LPA-KIV9. Briefly, samples (250 ng/well) were loaded in reducing loading buffer and run on a 4-12% Bis-Tris gel (Life Technologies). Gels were transferred to a PVDF membrane (Life Technologies), and the membranes were blocked with 5% nonfat dry milk in Tris-buffered saline and Tween (TBST) for 1 hour before incubation with primary antibodies (1 μg/ml in 1% BSA-TBST) overnight at 4° C., followed by incubation with secondary antibodies conjugated with horse-radish peroxidase (Cell Signaling Technology, Beverly, Mass.) for 1 hour at room temperature and by detection with KPL-TMB membrane peroxidase substrate (SeraCare, Milford, Mass., USA). A dot-blot was also performed with antigens in PBS (25 ng/dot) loaded directly on the membrane. Blocking and immunoblotting were done as described above and detected by a Super Signal West Dura substrate (Thermo Fisher Scientific, Waltham, Mass.) and an OptiChem HR imaging system (UVP, Upland, Calif.).
(§5) Determination of the binding domain of LPA-KIV₉ on apolipoprotein(a). […]

[4] = biological target: T4, K(IV2)5 recombinant apolipoprotein(a) construct (5 copies of KIV2) (UniProt P08519 131-700, limits assumed); assay: dot-blot, pattern duplicated by western blot
T4 construct: domain: KIV2, 5 copies
T4 sequence (looked up): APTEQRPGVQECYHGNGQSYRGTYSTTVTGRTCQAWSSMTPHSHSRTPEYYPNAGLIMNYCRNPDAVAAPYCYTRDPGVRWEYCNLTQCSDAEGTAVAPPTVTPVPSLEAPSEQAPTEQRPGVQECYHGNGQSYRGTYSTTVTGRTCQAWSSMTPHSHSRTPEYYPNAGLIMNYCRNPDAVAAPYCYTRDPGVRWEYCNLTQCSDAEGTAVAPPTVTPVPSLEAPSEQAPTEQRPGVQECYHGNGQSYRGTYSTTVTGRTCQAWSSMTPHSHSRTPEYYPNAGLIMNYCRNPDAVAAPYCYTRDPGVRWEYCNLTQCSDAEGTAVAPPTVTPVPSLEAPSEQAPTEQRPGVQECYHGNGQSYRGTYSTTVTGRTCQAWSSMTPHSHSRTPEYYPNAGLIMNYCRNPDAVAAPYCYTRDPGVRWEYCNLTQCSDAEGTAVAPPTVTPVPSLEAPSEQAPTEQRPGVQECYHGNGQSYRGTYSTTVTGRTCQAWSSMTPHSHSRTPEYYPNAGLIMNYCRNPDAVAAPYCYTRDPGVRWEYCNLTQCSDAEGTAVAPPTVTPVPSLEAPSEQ
Method: as §3, §4, §5

T1 sequence (P00747 20-810 limits assumed): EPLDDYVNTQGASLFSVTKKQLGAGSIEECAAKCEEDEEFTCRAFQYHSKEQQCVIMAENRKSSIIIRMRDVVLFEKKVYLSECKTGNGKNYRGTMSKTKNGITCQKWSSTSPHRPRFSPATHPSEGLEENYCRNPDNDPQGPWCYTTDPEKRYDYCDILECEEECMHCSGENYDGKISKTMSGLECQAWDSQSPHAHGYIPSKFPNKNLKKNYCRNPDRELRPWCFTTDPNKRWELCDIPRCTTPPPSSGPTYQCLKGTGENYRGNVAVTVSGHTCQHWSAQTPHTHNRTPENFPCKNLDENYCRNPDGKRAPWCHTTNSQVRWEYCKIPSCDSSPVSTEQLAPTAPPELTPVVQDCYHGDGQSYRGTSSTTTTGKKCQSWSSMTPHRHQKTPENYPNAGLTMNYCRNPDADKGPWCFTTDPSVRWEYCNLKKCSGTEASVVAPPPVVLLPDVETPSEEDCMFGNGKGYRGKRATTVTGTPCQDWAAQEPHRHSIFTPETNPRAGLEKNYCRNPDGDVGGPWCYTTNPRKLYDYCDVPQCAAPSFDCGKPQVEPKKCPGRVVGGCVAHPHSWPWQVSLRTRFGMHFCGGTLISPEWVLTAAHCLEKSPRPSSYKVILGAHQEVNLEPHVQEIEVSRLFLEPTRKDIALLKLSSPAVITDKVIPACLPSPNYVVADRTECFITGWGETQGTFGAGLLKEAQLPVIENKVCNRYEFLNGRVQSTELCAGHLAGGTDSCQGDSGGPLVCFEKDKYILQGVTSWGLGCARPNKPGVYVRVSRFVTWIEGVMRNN

B1: LPA-KIV9 murine monoclonal antibody (antibody, IgG1, V domains shown)
VH: QVQLQQSGAELVRPGASVKLSCKALGYTFTDYELHWLKQTPVHGLEWIGAVHPGSGGSAYNQNFKDKATLTADKSSSTAYMELSSLTSEDSAVYYCTREGPFYWGQGTTLTVSS
VL: DVVMTQTPLSLPVSLGDQASISCRSSQSLVHSNGNAYLHWYLQKPGQSPKLLIYKVSNRFSGVPDRFSGSGSGTNFTLKISRVEAEDLGIYFCSQSTHVPLTFGAGTKLELK
notes: constant regions are not; also called Colony #1; Colony 1
[1]
  binding result: no binding
[2]
  binding result: no binding
[3]
  binding result: no binding (tested: 25 ng/dot)
[4]
  binding result: no binding (tested: 25 ng/dot)
